Measurements reported in publication PMC12624006.

Molecular target: Lhcp-2 polypeptide of the prasinophyte light-harvesting complex Lhcp (Ostreococcus tauri) (Ostreococcus tauri)
Assay: cryo-EM structure

- stoichiometry N: 3
Substance: Lhcp-2 polypeptide of the prasinophyte light-harvesting complex Lhcp (Ostreococcus tauri) (natural protein)
